From paper doi:10.1101/2025.01.22.633148 (bioRxiv, 2025) come the findings set out here.

One may read the Kd as a measure of binding affinity in units of concentration.

In assay [1] the target is Hsp70 nucleotide-binding domain (Hsp70NBD). Briefly: ITC. A general note: In ITC the heat of successive injections is recorded.
In assay [2] the target is Human Rpn1, full-length, recombinant (human, UniProt Q13200 1-908). Briefly: ITC.
Human Rpn1, full-length, recombinant, sequence (Q13200 whole entry): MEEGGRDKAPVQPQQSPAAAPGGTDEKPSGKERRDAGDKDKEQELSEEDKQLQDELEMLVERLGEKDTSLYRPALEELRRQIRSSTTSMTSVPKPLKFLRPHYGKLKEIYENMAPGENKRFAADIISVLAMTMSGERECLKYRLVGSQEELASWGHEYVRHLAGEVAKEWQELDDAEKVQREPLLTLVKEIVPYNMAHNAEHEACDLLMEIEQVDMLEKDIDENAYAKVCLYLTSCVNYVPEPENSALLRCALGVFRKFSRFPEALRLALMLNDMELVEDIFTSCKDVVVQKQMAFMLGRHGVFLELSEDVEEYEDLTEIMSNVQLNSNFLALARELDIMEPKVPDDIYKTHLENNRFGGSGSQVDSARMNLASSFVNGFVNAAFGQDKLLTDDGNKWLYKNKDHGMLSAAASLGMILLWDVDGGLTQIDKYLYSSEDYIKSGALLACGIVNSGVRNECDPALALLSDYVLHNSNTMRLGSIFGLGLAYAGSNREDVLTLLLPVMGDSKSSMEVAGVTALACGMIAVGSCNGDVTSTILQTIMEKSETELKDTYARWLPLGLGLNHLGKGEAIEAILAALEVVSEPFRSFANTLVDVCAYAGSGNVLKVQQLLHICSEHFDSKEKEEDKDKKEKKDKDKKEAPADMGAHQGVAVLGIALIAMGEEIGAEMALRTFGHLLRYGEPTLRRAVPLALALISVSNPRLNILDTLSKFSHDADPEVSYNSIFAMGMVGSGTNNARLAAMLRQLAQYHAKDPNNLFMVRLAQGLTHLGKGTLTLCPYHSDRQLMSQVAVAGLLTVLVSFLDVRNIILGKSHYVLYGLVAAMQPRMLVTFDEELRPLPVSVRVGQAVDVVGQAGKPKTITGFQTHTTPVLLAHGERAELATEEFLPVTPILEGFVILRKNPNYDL

B1: Bag1 (Bcl-2 associated anthanogene 1), full-length (natural protein)
chain: MNRSQEVTRDEESTRSEEVTREEMAAAGLTVTVTHSNEKHDLHVTSQQGSSEPVVQDLAQVVEEVIGVPQSFQKLIFKGKSLKEMETPLSALGIQDGCRVMLIGKKNSPQEEVELKKLKHLEKSVEKIADQLEELNKELTGIQQGFLPKDLQAEALCKLDRRVKATIEQFMKILEEIDTLILPENFKDSRLKRKGLVKKVQAFLAECDTVEQNICQETERLQSTNFALAE
For B1, the Kd in assay [1] was 0.05 µM; in assay [2], around 0.5 µM.
